Assay [1] concerns the target Heat shock protein 90 (Hsp90), protein immobilised on the FEB chip (UniProt P07900). In words: field effect biosensing.
Assay [2] has the same target. In words: field effect biosensing. This is another data set of the same source.

The values that follow come from PMC10250827.

*1 amine or outer side, *2 acyl side, *3 side chain or, on linkers, in order; H or OH if unused. Glutaryl = O=C(CCCC(=O)[*:2])[*:1]; Suc = O=C(CCC(=O)[*:2])[*:1]

Consider “Cell division cycle 37 (Cdc37), analyte protein in FEB (from UniProt Q16543 1-378) (natural protein)”, for which the KD in the presence of CHP-028 (competitive binding) in assay [1] was 2.78 µM.

B1: CHP-027, pre-cyclic peptidomimetic CO-(CH2)3-CO2H KTGDEK-K-GG-…-NH2 (peptide)
peptide: Glutaryl-KTGDEKKGGYGRKKRRQRRR-NH2
SMILES: C[C@@H](O)[C@H](NC(=O)[C@H](CCCCN)NC(=O)CCCC(=O)O)C(=O)NCC(=O)N[C@@H](CC(=O)O)C(=O)N[C@@H](CCC(=O)O)C(=O)N[C@@H](CCCCN)C(=O)N[C@@H](CCCCN)C(=O)NCC(=O)NCC(=O)N[C@@H](Cc1ccc(O)cc1)C(=O)NCC(=O)N[C@@H](CCCNC(=N)N)C(=O)N[C@@H](CCCCN)C(=O)N[C@@H](CCCCN)C(=O)N[C@@H](CCCNC(=N)N)C(=O)N[C@@H](CCCNC(=N)N)C(=O)N[C@@H](CCC(N)=O)C(=O)N[C@@H](CCCNC(=N)N)C(=O)N[C@@H](CCCNC(=N)N)C(=O)N[C@@H](CCCNC(=N)N)C(N)=O
B1: the Kd in assay [2] came to 30 µM.

Turning to Ac-KTGDEKKGGYGRKKRRQRRR-NH2 [CHP-026, linear peptide CH3-CO-KTGDEK-K-GG-…-NH2], the Kd in assay [2] came to 342 µM.

B2: CHP-028, pre-cyclic peptidomimetic CO-(CH2)2-CO2H KTGDEK-K-GG-…-NH2 (peptide)
peptide: Suc-KTGDEKKGGYGRKKRRQRRR-NH2
SMILES: C[C@@H](O)[C@H](NC(=O)[C@H](CCCCN)NC(=O)CCC(=O)O)C(=O)NCC(=O)N[C@@H](CC(=O)O)C(=O)N[C@@H](CCC(=O)O)C(=O)N[C@@H](CCCCN)C(=O)N[C@@H](CCCCN)C(=O)NCC(=O)NCC(=O)N[C@@H](Cc1ccc(O)cc1)C(=O)NCC(=O)N[C@@H](CCCNC(=N)N)C(=O)N[C@@H](CCCCN)C(=O)N[C@@H](CCCCN)C(=O)N[C@@H](CCCNC(=N)N)C(=O)N[C@@H](CCCNC(=N)N)C(=O)N[C@@H](CCC(N)=O)C(=O)N[C@@H](CCCNC(=N)N)C(=O)N[C@@H](CCCNC(=N)N)C(=O)N[C@@H](CCCNC(=N)N)C(N)=O
Molecule B2 yielded a Kd in assay [2] of 16.4 µM.

What is called Kd is the constant that tells how readily two partners part at equilibrium.
